PMC5605669

Biological target: APOBEC3G, wild type (human), Q9HC16
Assay: optical tweezers (single-molecule ssDNA extension); self-association of A3G bound to force-melted lambda-DNA (ssDNA) held at 80 pN; 10 to 200 nM A3G flowed in; 10 mM HEPES, 50 mM Na+, pH 7.5, 21 °C; two-exponential fit of incubation curves, k2 = rate of oligomer formation at saturating binding
Conditions: remark: other sources report otherwise

B1: APOBEC3G, wild type, Q9HC16 1-384 (enzyme)
chain: MKPHFRNTVERMYRDTFSYNFYNRPILSRRNTVWLCYEVKTKGPSRPPLDAKIFRGQVYSELKYHPEMRFFHWFSKWRKLHRDQEYEVTWYISWSPCTKCTRDMATFLAEDPKVTLTIFVARLYYFWDPDYQEALRSLCQKRDGPRATMKIMNYDEFQHCWSKFVYSQRELFEPWNNLPKYYILLHIMLGEILRHSMDPPTFTFNFNNEPWVRGRHETYLCYEVERMHNDTWVLLNQRRGFLCNQAPHKHGFLEGRHAELCFLDVIPFWKLDLDQDYRVTCFTSWSPCFSCAQEMAKFISKNKHVSLCIFTARIYDDQGRCQEGLRTLAEAGAKISIMTYSEFKHCWDTFVDHQGCPFQPWDGLDEHSQDLSGRLRAILQNQEN
B1 showed a k2 (rate of oligomer formation on ssDNA) of 0.007 s⁻¹.
